Laboratory results from US20100015170A1.

Tests used:
[1] = target: human Toll-like receptor 5 (human) (UniProt O60602); assay: cell-based or functional assay
[2] = target: mouse Toll-like receptor 5 (mouse) (UniProt Q9JLF7); assay: cell-based or functional assay
UniProt Q9JLF7, sequence (Q9JLF7 27-859): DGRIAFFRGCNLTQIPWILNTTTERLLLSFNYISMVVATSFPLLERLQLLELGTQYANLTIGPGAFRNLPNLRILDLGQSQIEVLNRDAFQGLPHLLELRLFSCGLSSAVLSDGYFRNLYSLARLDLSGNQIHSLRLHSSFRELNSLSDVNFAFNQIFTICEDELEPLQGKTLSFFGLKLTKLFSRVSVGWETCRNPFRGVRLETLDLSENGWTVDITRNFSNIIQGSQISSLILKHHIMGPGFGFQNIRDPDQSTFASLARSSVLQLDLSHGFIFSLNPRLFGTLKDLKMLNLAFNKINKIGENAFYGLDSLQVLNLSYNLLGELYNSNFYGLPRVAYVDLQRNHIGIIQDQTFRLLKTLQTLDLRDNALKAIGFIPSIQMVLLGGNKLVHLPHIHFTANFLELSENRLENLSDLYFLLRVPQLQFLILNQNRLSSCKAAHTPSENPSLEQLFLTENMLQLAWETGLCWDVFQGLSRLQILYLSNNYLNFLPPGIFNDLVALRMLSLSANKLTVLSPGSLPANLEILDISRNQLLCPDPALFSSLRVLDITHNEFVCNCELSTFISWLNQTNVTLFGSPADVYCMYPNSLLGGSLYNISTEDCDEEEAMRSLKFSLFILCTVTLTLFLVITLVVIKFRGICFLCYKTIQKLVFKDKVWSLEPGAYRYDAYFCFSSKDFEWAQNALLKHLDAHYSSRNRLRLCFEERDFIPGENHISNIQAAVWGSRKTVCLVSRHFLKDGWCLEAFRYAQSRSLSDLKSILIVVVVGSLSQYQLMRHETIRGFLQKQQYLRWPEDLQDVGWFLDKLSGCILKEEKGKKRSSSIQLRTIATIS

UniProt O60602, sequence (O60602 21-858): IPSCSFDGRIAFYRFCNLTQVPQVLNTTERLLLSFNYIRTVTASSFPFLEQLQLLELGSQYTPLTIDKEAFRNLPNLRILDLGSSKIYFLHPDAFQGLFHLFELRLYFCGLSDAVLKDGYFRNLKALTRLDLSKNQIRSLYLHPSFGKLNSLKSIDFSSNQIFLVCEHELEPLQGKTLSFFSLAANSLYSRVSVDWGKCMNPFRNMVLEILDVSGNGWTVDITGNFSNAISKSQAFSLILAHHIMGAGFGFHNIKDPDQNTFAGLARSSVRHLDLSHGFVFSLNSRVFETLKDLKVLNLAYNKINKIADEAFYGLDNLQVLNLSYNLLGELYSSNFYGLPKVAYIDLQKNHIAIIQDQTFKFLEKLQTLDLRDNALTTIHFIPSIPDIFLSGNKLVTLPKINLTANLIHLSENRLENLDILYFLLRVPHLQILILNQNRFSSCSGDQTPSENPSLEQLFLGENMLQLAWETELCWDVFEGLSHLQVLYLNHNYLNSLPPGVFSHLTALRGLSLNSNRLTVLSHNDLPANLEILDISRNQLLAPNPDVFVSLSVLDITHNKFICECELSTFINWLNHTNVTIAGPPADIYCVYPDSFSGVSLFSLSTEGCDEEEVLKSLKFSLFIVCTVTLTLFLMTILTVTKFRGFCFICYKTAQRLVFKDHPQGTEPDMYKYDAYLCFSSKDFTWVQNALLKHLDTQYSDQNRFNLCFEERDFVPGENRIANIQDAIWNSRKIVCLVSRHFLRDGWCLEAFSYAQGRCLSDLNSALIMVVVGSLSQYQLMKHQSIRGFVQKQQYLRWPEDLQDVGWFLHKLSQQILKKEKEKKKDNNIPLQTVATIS

Work on “recombinant mutant flagellin FliC R90A (from UniProt P72151 2-488) (ligand)” yielded a TLR5-mediated NF-κB activation (luciferase, HEK293 cells with human TLR5) (fold lower than FliC WT) [1] greater than 100 and a TLR5-mediated NF-κB activation (luciferase, HEK293 cells with mouse TLR5) (fold lower than FliC WT) [2] greater than 100.
Substance “recombinant mutant flagellin FliC L88A (from UniProt P72151 2-488) (ligand)” has a TLR5-mediated NF-κB activation (luciferase, HEK293 cells with human TLR5) (fold lower than FliC WT) [1] greater than 100 and a TLR5-mediated NF-κB activation (luciferase, HEK293 cells with mouse TLR5) (fold lower than FliC WT) [2] greater than 100.
